In publication PMC12207370, “Macrocyclic Peptide Probes for Immunomodulatory Protein CD59: Potent Modulators of Bacterial Toxin Activity and Antibody‐Dependent Cytotoxicity” (Angewandte Chemie (International Ed. in English), 2025):

Biological target: T1, biotinylated CD59 (Homo sapiens, UniProt P13987)
T1 construct: Recombinant soluble human CD59 with an additional C-terminal cysteine residue
T1 sequence (P13987 26-102 limits assumed): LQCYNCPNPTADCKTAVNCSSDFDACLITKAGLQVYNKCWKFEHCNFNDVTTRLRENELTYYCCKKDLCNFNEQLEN
Assay: mRNA-display cyclic peptide screen against CD59-biotin, NGS abundance after 6th selection round
Conditions: for Percentage Seq I: counts normalised by total counts of sample Seq I; for Percentage Seq I / Percentage Seq II: percentage of the pool; for Percentage Seq I / Percentage Seq II / Percentage Average / Percentage of the pool, averaged across the two sequencing samples / Percentage of the pool, Seq I / Percentage of the pool, Seq II: sheet R6; for Percentage Seq II: counts normalised by total counts of sample Seq II; for Percentage Average: percentage of the pool averaged across the two sequencing samples; for Counts Seq I / Counts Seq II: raw NGS counts of peptide sequence; for Counts Seq I: sequencing sample Seq I; for Counts Seq I / Counts Seq II / Counts (raw counts for peptide sequence), Seq I / Counts (raw counts for peptide sequence), Seq II: sheet R6 (6th selection round); for Counts Seq II: sequencing sample Seq II; for Counts (raw counts for peptide sequence), Seq I: NGS sample Seq I; for Counts (raw counts for peptide sequence), Seq II: NGS sample Seq II; for Percentage of the pool, averaged across the two sequencing samples: average of Seq I and Seq II; for Percentage of the pool, Seq I: counts normalised by total counts of NGS sample Seq I; for Percentage of the pool, Seq II: counts normalised by total counts of NGS sample Seq II
Method in brief: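 Peptide–mRNA fusions were made by in vitro translation with a customised PURE express kit. The kit lacked release factor 1 and methionine and was supplemented with […] initiator tRNA carrying N-chloroacetyl-d-tyrosine. Thioether macrocycles were formed, then enriched and amplified over iterative rounds on CD59-biotin immobilised on streptavidin beads. NGS read counts per sequence were recorded after the 6th selection round.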

Sequence | Percentage Seq I | Percentage Seq II | Percentage Average | Counts Seq I | Counts Seq II | Counts (raw counts for peptide sequence), Seq I | Counts (raw counts for peptide sequence), Seq II | Percentage of the pool, averaged across the two sequencing samples | Percentage of the pool, Seq I | Percentage of the pool, Seq II
CFRYRVTPTSY | 0.023% | 0.014% | 0.018% | 100 | 6 |  |  |  |  | 
CFAGRLTIGAV | 0.056% | 0.056% | 0.056% | 245 | 24 |  |  |  |  | 
CPRYVSRGFA |  |  |  |  |  | 72 | 5 | 0.014% | 0.016% | 0.012%
LLGTRDYVRLWH | 0.144% | 0.139% | 0.142% | 630 | 60 |  |  |  |  | 
CFLTRASQLSGT |  |  |  |  |  | 44 | 4 | 0.010% | 0.010% | 0.009%
FIRGNSTSVLC |  |  |  |  |  | 36 | 5 | 0.010% | 0.008% | 0.012%
ISRGDARYTWG | 0.019% | 0.023% | 0.021% | 83 | 10 |  |  |  |  | 
CFAARLSNGDS | 0.319% | 0.362% | 0.341% | 1397 | 156 |  |  |  |  | 
CFALRLSQTSV | 0.018% | 0.042% | 0.030% | 78 | 18 |  |  |  |  | 
FIFGNRNWTFG | 0.021% | 0.021% | 0.021% | 94 | 9 |  |  |  |  | 
CFAHRITDPNTQ | 0.027% | 0.014% | 0.020% | 117 | 6 |  |  |  |  | 
SSYRELAHLSC | 0.127% | 0.125% | 0.126% | 555 | 54 |  |  |  |  | 
HCWVRGSRNYT | 2.570% | 2.548% | 2.559% | 11242 | 1098 |  |  |  |  | 
CFSRRVTYPHQV |  |  |  |  |  | 31 | 8 | 0.013% | 0.007% | 0.019%
GRLNECHVIWP | 0.317% | 0.302% | 0.310% | 1389 | 130 |  |  |  |  | 
YAQGDKLTARG | 0.028% | 0.026% | 0.027% | 124 | 11 |  |  |  |  | 
CFSRRLTAGAV | 0.031% | 0.030% | 0.030% | 134 | 13 |  |  |  |  | 
CLRRSYEATSI | 0.020% | 0.021% | 0.021% | 88 | 9 |  |  |  |  | 
SISGGRDYTRG | 0.032% | 0.026% | 0.029% | 141 | 11 |  |  |  |  | 
CYAAGSASWSRG |  |  |  |  |  | 65 | 6 | 0.014% | 0.015% | 0.014%
CFQNRVTSDSAK | 0.160% | 0.142% | 0.151% | 702 | 61 |  |  |  |  | 
HAFGNRSFTRG |  |  |  |  |  | 82 | 5 | 0.015% | 0.019% | 0.012%
CYSLRLGPETV |  |  |  |  |  | 37 | 6 | 0.011% | 0.00846% | 0.014%
YSSGSRHWTRS |  |  |  |  |  | 57 | 7 | 0.015% | 0.013% | 0.016%
FVRGDQYSVLG | 0.056% | 0.081% | 0.069% | 247 | 35 |  |  |  |  | 
FVRGDLHSVLG | 0.058% | 0.044% | 0.051% | 253 | 19 |  |  |  |  | 
SAWGNRQIQHY |  |  |  |  |  | 74 | 3 | 0.012% | 0.017% | 0.007%
